Laboratory results published in article PMC11480844 (2024).

B1: H2-Kb / Ed33 (parent complex)
chain 1: SQLAEENSWALSVHEGESVTVNCSYKTSITALQWYRQKSGKGPAQLILIRSNEREKRNGRLRATLDTSSQSSSLSITATRCEDTAVYFCATDHNNAGAKLTFGGGTRLTVRP
chain 2: DAGVTQTPRHEVAEKGQTIILKCEPVSGHNDLFWYRQTKIQGLELLSYFRSKSLMEDGGAFKDRFKAEMLNSSFSTLKIQPTEPKDSAVYLCASSLYTNQAPLFGEGTRLSVL
chain 3: not shown
chain 4: IQKTPQIQVYSRHPPENGKPNILNCYVTQFHPPHIEIQMLKNGKKIPKVEMSDMSFSKDWSFYILAHTEFTPTETDTYACRVKHDSMAEPKTVYWDRDM
chain 5: SIINFEKL

Variants of: B1
Test: % of reporter cells activated (NFAT-GFP), raw; also: test concentration or dose not given here

**Q.** chain 5 F5H was tested. Which ratio to parent did it give?
**A.** 0.911

**Q.** With chain 5 F5A as the variant, how does the ratio to parent read?
**A.** 1.1

**Q.** Which ratio to parent does the source give for chain 5 F5W here?
**A.** 0.968

**Q.** chain 5 F5I was tested. Which ratio to parent did it give?
**A.** 0.655

**Q.** With chain 5 F5S as the variant, how does the ratio to parent read?
**A.** 0.958

**Q.** chain 5 F5V was tested. Which ratio to parent did it give?
**A.** 0.917

**Q.** chain 5 F5P was tested. Which ratio to parent did it give?
**A.** 0.988

**Q.** Which ratio to parent does the source give for chain 5 F5T here?
**A.** 1.08

**Q.** chain 5 F5D was tested. Which ratio to parent did it give?
**A.** 0.85

**Q.** For chain 5 N4E, which ratio to parent is on record?
**A.** 0.246

**Q.** How did the ratio to parent turn out when chain 5 N4A was run?
**A.** 0.00624

**Q.** Which ratio to parent does the source give for chain 5 N4Q here?
**A.** 0.00449

**Q.** How did the ratio to parent turn out when chain 5 N4K was run?
**A.** 0.41

**Q.** For chain 5 N4R, which ratio to parent is on record?
**A.** 0.168

**Q.** For chain 5 N4W, which ratio to parent is on record?
**A.** 0.0116

**Q.** For chain 5 N4T, which ratio to parent is on record?
**A.** 0.0148

**Q.** For chain 5 N4G, which ratio to parent is on record?
**A.** 0.294

**Q.** For chain 5 N4S, which ratio to parent is on record?
**A.** 0.00273

**Q.** How did the ratio to parent turn out when chain 5 N4H was run?
**A.** 0.134

**Q.** Which ratio to parent does the source give for chain 5 I2P here?
**A.** 1.03

**Q.** chain 5 I2Y was tested. Which ratio to parent did it give?
**A.** 0.715

**Q.** chain 5 I2H was tested. Which ratio to parent did it give?
**A.** 0.835

**Q.** How did the ratio to parent turn out when chain 5 I2C was run?
**A.** 0.918

**Q.** Which ratio to parent does the source give for chain 5 I2K here?
**A.** 1.01

**Q.** For chain 5 I2E, which ratio to parent is on record?
**A.** 1.03

**Q.** With chain 5 I2Q as the variant, how does the ratio to parent read?
**A.** 0.918

**Q.** For chain 5 I2G, which ratio to parent is on record?
**A.** 0.456

**Q.** chain 5 I2A was tested. Which ratio to parent did it give?
**A.** 0.885

**Q.** For chain 5 S1M, which ratio to parent is on record?
**A.** 0.675

**Q.** For chain 5 S1C, which ratio to parent is on record?
**A.** 0.295

**Q.** Which ratio to parent does the source give for chain 5 S1A here?
**A.** 0.461

**Q.** Which ratio to parent does the source give for chain 5 S1Y here?
**A.** 0.414

**Q.** For chain 5 S1I, which ratio to parent is on record?
**A.** 0.0715

**Q.** How did the ratio to parent turn out when chain 5 S1F was run?
**A.** 0.3

**Q.** With chain 5 S1P as the variant, how does the ratio to parent read?
**A.** 0.115

**Q.** With chain 5 S1R as the variant, how does the ratio to parent read?
**A.** 0.392

**Q.** How did the ratio to parent turn out when chain 5 S1V was run?
**A.** 0.349

**Q.** How did the ratio to parent turn out when chain 5 S1L was run?
**A.** 0.0492

**Q.** Which ratio to parent does the source give for chain 5 S1E here?
**A.** 1.02

**Q.** chain 5 E6A was tested. Which ratio to parent did it give?
**A.** 0.055

**Q.** For chain 5 E6K, which ratio to parent is on record?
**A.** 0.425

**Q.** Which ratio to parent does the source give for chain 5 E6Q here?
**A.** 0.218

**Q.** chain 5 E6G was tested. Which ratio to parent did it give?
**A.** 0.513

**Q.** With chain 5 E6T as the variant, how does the ratio to parent read?
**A.** 0.0145

**Q.** Which ratio to parent does the source give for chain 5 E6D here?
**A.** 0.113

**Q.** With chain 5 E6I as the variant, how does the ratio to parent read?
**A.** 0.00689

**Q.** For chain 5 K7C, which ratio to parent is on record?
**A.** 0.063

**Q.** How did the ratio to parent turn out when chain 5 K7R was run?
**A.** 0.318

**Q.** For chain 5 K7G, which ratio to parent is on record?
**A.** 0.204

**Q.** chain 5 K7N was tested. Which ratio to parent did it give?
**A.** 0.216

**Q.** How did the ratio to parent turn out when chain 5 K7T was run?
**A.** 0.0585

**Q.** chain 5 K7H was tested. Which ratio to parent did it give?
**A.** 0.0435

**Q.** How did the ratio to parent turn out when chain 5 K7E was run?
**A.** 0.0117

**Q.** chain 5 I3G was tested. Which ratio to parent did it give?
**A.** 1.03

**Q.** For chain 5 I3Q, which ratio to parent is on record?
**A.** 1.08

**Q.** chain 5 I3Y was tested. Which ratio to parent did it give?
**A.** 0.0463

**Q.** With chain 5 I3S as the variant, how does the ratio to parent read?
**A.** 1.01

**Q.** Which ratio to parent does the source give for chain 5 I3E here?
**A.** 1.06

**Q.** How did the ratio to parent turn out when chain 5 I3F was run?
**A.** 0.0275

**Q.** How did the ratio to parent turn out when chain 5 I3W was run?
**A.** 0.836

**Q.** For chain 5 I3R, which ratio to parent is on record?
**A.** 0.581

**Q.** Which ratio to parent does the source give for chain 5 I3V here?
**A.** 0.933

**Q.** Which ratio to parent does the source give for chain 5 I3P here?
**A.** 1.09

**Q.** For chain 5 I3N, which ratio to parent is on record?
**A.** 0.932

**Q.** With chain 5 I3L as the variant, how does the ratio to parent read?
**A.** 0.984

**Q.** With chain 5 I3K as the variant, how does the ratio to parent read?
**A.** 0.656

**Q.** Which ratio to parent does the source give for chain 5 L8C here?
**A.** 0.824

**Q.** With chain 5 L8M as the variant, how does the ratio to parent read?
**A.** 0.936

**Q.** Which ratio to parent does the source give for chain 5 L8R here?
**A.** 0.873

**Q.** For chain 5 L8Q, which ratio to parent is on record?
**A.** 0.9

**Q.** How did the ratio to parent turn out when chain 5 L8A was run?
**A.** 0.913

**Q.** How did the ratio to parent turn out when chain 5 L8I was run?
**A.** 0.988

**Q.** How did the ratio to parent turn out when chain 5 L8F was run?
**A.** 0.941

**Q.** chain 5 L8S was tested. Which ratio to parent did it give?
**A.** 0.84

**Q.** With chain 5 L8E as the variant, how does the ratio to parent read?
**A.** 0.8
